# Results published in patent US20180036256.
# Columns and labels:
# GST-LSD1 K114A = GST-LSD1 K114A (UniProt O60341)
# GST-LSD1 = GST-LSD1 (UniProt O60341)
substance,measurement,setting,value
GST-G9A aa786-1210,"methylation at K114 in vitro (methylation assay, Western blot with anti-LSD1 K114me2)",GST-LSD1 K114A,GST-LSD1 but not GST-LSD1 K114A is methylated at K114 by G9A in the presence of SAM
same,"methylation at K114 in vitro (methylation assay, Western blot with anti-LSD1 K114me2)",GST-LSD1,GST-LSD1 but not GST-LSD1 K114A is methylated at K114 by G9A in the presence of SAM
